The data set in a line: yeast display, Sf9 membrane polyspecificity reagent, FACS + sequencing; frameworks hold sequencing errors. Put shortly:
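Galactose-induced (36–48 hours) yeast carrying a synthetic nanobody display library were exposed to 10% biotinylated, detergent-solubilized Sf9 membrane reagent at 4 °C for 1 hour. FACS followed streptavidin microbead enrichment, using low and high (top ~1%) gates for expression (anti-HA) and reagent binding (streptavidin). Colony PCR, MiSeq 2 × 250 sequencing and CDR-length filtering followed. Labels for polyreactivity reflect the gate of origin.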
“QVQLVESGGGLVQAGGSLRLSCAASGFIFRGNAMGWYRQAPGKERELVAAISKSGGRTYYADSVKGRFTISRDNAKNTVYLQMNSLKPEDTAVYYCNVLRMGLGRESDSWGQGTQVTVSA”: the “polyreactivity (PSR sort gate)” value was “high polyreactivity”.

For the sequence “QVQLVESGGGLVQAGGSLRLSCAASGSIFAQYAMGWYRQAPGKERELVAAITRGGGNTYYADTVKGRFTISRDNAKNTVYLQMNSLKPEDTAVYYCAANRRDGYVYWGQGTQVTVSS”, the “polyreactivity (PSR sort gate)” value was “low polyreactivity”.

For “QVQLVDSGGALVQAGGSLRLSCAASGSTFVVNAIGWYRQAPGKERELVAAIAGGGSTNYADSVKGRFTISRDNAKNTVYLQMNSLKPEDTAVYYCAVDGVEFSSYGYWGQGTQVTVSS”, the “polyreactivity (PSR sort gate)” value is recorded as “low polyreactivity”.

In the case of “QVQLVESGGGLLQAGGSLRLSCAASVRFLCYGWYRQAPGKERELVAAITWSGGSTYYADSVKGRFTISRDNAKNTVYLLMNSLKPEDTAVYYCARYPDSYWYGRKNYYWGQGTQVTVSS”, the “polyreactivity (PSR sort gate)” value was “high polyreactivity”.

On to “QVQLVESGGGLVQAGGSLRLSCAASGFTFRNYAMGWYIQAPGKERELVATISWSGTSTYYADSVKGRFTISRDNAKNTVYLQMNSLKPEDTAVYYCAARGRHSGYYSFPYYYWGQGTQVTVSS”, for which the “polyreactivity (PSR sort gate)” value is listed as “low polyreactivity”.

For “QVQLVESGGGLVQAGGSLRLSCAASGLIFVKYAMGWYRQAPGKERELVADITSTGGSTYYADSVKGRFTISRDNAKNTVYLQMNSLKPEDTAVYYCATDYGYYDYWGQGTQVTVSS”, the “polyreactivity (PSR sort gate)” value is “low polyreactivity”.

As to “QVQVVESGGGLVQAGGSLRLSCAASGSTFKNYAMGWYRQAPGKERELVAAIHGRGGSTYYADSVKGRFTISRDNAKNTVYLQMNSLKPEDTAVYYCAASRVHSYNPGYPRYYYWGQGTQVNVSS”, the “polyreactivity (PSR sort gate)” value is given as “high polyreactivity”.

As for “QVQLVESGGGLVQAGGSLRLSCAASGRIFGYYAMGWYRQAPGKERELVAAISQGGGSTYADSVKGRFTISRDNAKNTVYLQMNSLKPEDTAVYYCAKRRRTGYGYWGQGTQVTVSS”, the “polyreactivity (PSR sort gate)” value is on record as “high polyreactivity”.

For “QVQLVESGGGLVQAGGSLRLSCAASGSIFYQNAMGWYRQAPGKESELVAAISWRGDSTSYADSVKGRFTISRDNAKNTVYLQMNSLKPEDPAVYYCATAHDYAFYRYWYVPSEYNYWGQGTLVTVSS”, the “polyreactivity (PSR sort gate)” value is given as “low polyreactivity”.

For “QVQLVESGGGLVQAGGSLSLSCAASGNIFWGNAMGWYRQAPGKERELVAAITSIDSSTYYADSVKGRFTISRDNAKNTVYLQMNSLKPEDTAVYYCAADGDWYGYIWQSDDGYDSWGQGTQVTVSS”, the “polyreactivity (PSR sort gate)” value is reported as “low polyreactivity”.

“QVQLVESGGGLVQAGGSLRLSCAASGRTFVANGMGGYRQAPGKERELVAAINYGDDTYYADSVKGRFTISRDNAKNTVYLQMNSQKPEDTAFYFLAADIIYGYEVYTYTSDYWGQGTQVTVSS”: the “polyreactivity (PSR sort gate)” value is “low polyreactivity”.

Take “QVQLVESGGGLVQAGGSLRLSCAASGSIFWYYAMGWYRQAPGKERELVATITSGGTNYADSVKGRFTISRDNAKNTVYLQMNSLKPEDTAVYYCNADVSWSRIFYLGYDSNDYWGQGTQVTVSS”: the “polyreactivity (PSR sort gate)” value was “low polyreactivity”.

Turning to “QVQLVESGGGLVQAGGSLRLSCAASGRIFSLYAMGWYRQAPGKERELVAAITWSSGSTYYADSVKGRFTISRDNAKNTVYLQMNSLKPEDTAVYYCAARVFTLLGYSYEYWGQGTQVTVSS”, the “polyreactivity (PSR sort gate)” value is “low polyreactivity”.

For the sequence “QVQLVESGGGLVQAGGSLRLSCAASGRIISINAMVWYRQAPGKERELVAAINSGGSTHYADSVKGRFTISRDNAKNTVYLQMNSLKPEDTAVYYCAARKTVSYFRVRTFDYWGQGTQVTVSS”, the “polyreactivity (PSR sort gate)” value is “low polyreactivity”.

“QVQLVESGGGLVQAGGSLRLSCAASGSIFHYYAMGWYRQAPGKERELVADITSGGSTNYADSVKGRFTISRDNAKNTVYVQMNSLKQEDTAVYYCNASFQSWLVRVPGDYWGQGTQVTVSS”: the “polyreactivity (PSR sort gate)” value is on record as “low polyreactivity”.

Take “QVQLVESAGGLVQAGGSLRLSCAASGRTFKYYAMGWYRQAPGKERELVAAISRSGGSTYADSVKGRFTISRDNAKNTVYLQMNSLKPDETAVYYCAAYSGVGYLWFDYWGQGTQVTVSS”: the “polyreactivity (PSR sort gate)” value was “low polyreactivity”.

As for “QVQLVESGGALVQAGGSLRLSCAASGIIFRYNAMGWYRQAPGKDREVVAAISWSTGSTYYADSVKGRFTISRDNAKNTVYLQMNSLKPEDTAVYYCNAYWLRHIYNYWGQGSQVTVSS”, the “polyreactivity (PSR sort gate)” value is on record as “high polyreactivity”.

With “QVQLVESGGGLVQARGSLRLSCAASGSTLTRNALGWYRQAPGKERELVAAITQRGGSTYYADSVKGRFTISRDNGKNTVYFQMNSLKPEDTAVYYCAKVPSVKYRSIWVLPEYGWGQGTQVTVSS”, the “polyreactivity (PSR sort gate)” value is recorded as “high polyreactivity”.

Take “QVQLVESGGRLVQAGGSLRLSCAASGIIFYVYAMGWYRQAPGKERELVAAISSSGGSTYYADSVKGRFTISRDNAKNTVYLQMNSLKPEDSAVYYCAAVSSGYDDWGQGTQVTVTS”: the “polyreactivity (PSR sort gate)” value is recorded as “high polyreactivity”.

Turning to “QVQLVESGGALVQAGGSLRLSCAPSGRIFDFKAIGWYRQAPGKEREFVAAITWGGGSTYYADSVKGRFSISRDNAKNSVYLPMNSLKPEVTAVYYCAADGWYYYQSWFNFGMDYWGQGTQVTVSS”, the “polyreactivity (PSR sort gate)” value was “low polyreactivity”.

For “QVQLVESGGGLVQAGGSLRLSCAASGLIFYDNMGWYRQAPGKERELVAAISSSGGSTSYADSVKGRFTISRDNAKNTVYLQMNSLKPEDTAVYDSAADSYPAYLGFVGFDYWGQGTQVTVSS”, the “polyreactivity (PSR sort gate)” value is listed as “low polyreactivity”.

Consider “QVQLVESGGGLVQAGGSLRLSCAASGSTFLGYDMGWYRQAPGKERELVAAISIGGSTYYADSVKGRFTISRDNAKNTVYLQMNSLKPEDTAVYYCARVTWGHQVIYGLSDYDSWGQGTQVTVSS”, for which the “polyreactivity (PSR sort gate)” value was “low polyreactivity”.

As for “QVQLVESGGGLVQAGGSLRLSCAASGRTFGPNAMGWYRQAPGKERELVAAISGSGGSTYYADSVKGRFTISRDNAKNTVYLQMYSLKPEDTAVYYCAARHRQQKLDYWGQGTQVTVSS”, the “polyreactivity (PSR sort gate)” value is reported as “high polyreactivity”.

For “QVQLVESGGGLVQAGGSLRLSCAASGGLFSVYAMGWYRQAPGKERELVASITVSGGSTSYADSVKGRFTISRDNAKNTVYLQMYSLKPEDTAVYYCNTDFAQAHTLSWYEDMDYWGQGTQVTVSS”, the “polyreactivity (PSR sort gate)” value is “low polyreactivity”.

In the case of “QVQLVESGGGLVQAGGSIRLSCAASGFTFRRNAMGWSRQAPGKERELVAAITSSGASTYYADSVKGRFTISRDNAKNTVYLQMNSLKPEDTAVYYCAARQTYYKYGYWGQGTQVTVSS”, the “polyreactivity (PSR sort gate)” value is given as “high polyreactivity”.

Regarding “QVQLVESGGGLVQAGGSLRLSCAATGSTFDNYAMGWYRQAHGKERELVADITWSGGSTYYADSVKGRFTISRDNAKNTVYLQMNSLKPEDTAVYYCNTAGYYTKYDYWGQGTQVTVSS”, the “polyreactivity (PSR sort gate)” value is “low polyreactivity”.

Regarding “QVQLVESGGGLVQAGGSLRLSCAASGRIFQHNTMGWYRQAPGKERDFVAAIRRSGGSTYYADSVKGRFTISRDNAKNTVYLQMNSLKPEDTAVYYCAARDYPTGTRRWGGGDSWGQGTEVTVSS”, the “polyreactivity (PSR sort gate)” value is recorded as “low polyreactivity”.

For “QVQLVESGGGLVQAGGSLRLSCAASGRIFYRYTMGRYRQAPGKERELVAAITSSSGSTYYADSVKGRFTISRDNAKNTVYLQMNSLKPEDTAVYYCAARIYHDIDTRSYYWGQGTQVTVSS”, the “polyreactivity (PSR sort gate)” value is on record as “high polyreactivity”.

As for “QVQLVESGGGLVQAGGSLRLSCAASGITFKGNAMGWYRQAPGKERELVAAIRWRAGRTYYADSVKGRFTISRDNAKNTVYLQMNSLKPEDTAVYYCAAVGRYAYRRGSFLAYKSNYDYWGQGTQVTVSS”, the “polyreactivity (PSR sort gate)” value was “high polyreactivity”.

As to “QVQLVESGGGLVQAGGSLRLSCAASGITFPYYAMGWYREAPGKERELVAAITQSGGSTYYADSVKGRFTISRDNAKNTVYLQMNSLKPEDTAVYYCAADSSRSVNYYRYDYWGQGTQVTLSS”, the “polyreactivity (PSR sort gate)” value is reported as “low polyreactivity”.

As to “QVQLVESGGGLVQAGGSLRLSCAASGLTFWGYAMGWYRQAPGKEREFVASISSGGGSTYYADSVKGRFTISRDNAKNTVYLQMNSLKPEDTAVYYCNADRTQDRNPYTYATFDYWGQGTQVTVSS”, the “polyreactivity (PSR sort gate)” value is “low polyreactivity”.

With “QFQLVESGGGLDQAGGSLRISCAPSGITFEYYTMGLYRQAPGKEIEFVAAITQGGGTTYYADSVKGRFTISRDNEKNTVYLQMNSLKPEDTAVYYCAAYVGYLLLYYPTYYYWGQGTQVTVSS”, the “polyreactivity (PSR sort gate)” value is recorded as “low polyreactivity”.

For “QVQLVESGGGLVQAGGSLRLSCAASGRTFTGYTMGWYRQAPGKEREFVAAISSNGGRTYYADSVKGRFTISRDNAKNTVYIQMNSLKPEDTAVYYCAAPYTFWGQGTQVTVSS”, the “polyreactivity (PSR sort gate)” value is given as “high polyreactivity”.

With “QFQLEYSGGGLVQAGGSLRLSFASSGSTLARNAMGWYRQATVKERELVPSINGRTTRTYYADSVKGRFTISRDNAKNTVYLQMNSLKPEDTAVYYCAADPPGYVYGKRYYWGQGTQVTVSS”, the “polyreactivity (PSR sort gate)” value was “high polyreactivity”.

For “QVQLVESGGGLVQAGGSLRLSCAASGSIFRAYAMGWYRQAPGKERELVAAISWGGGSTSYADSVKGRFTISRDNAKNTVYLQMNSLKPEDTAVYFCNKVSFSKRRDYYWGQGTQVTVSS”, the “polyreactivity (PSR sort gate)” value is given as “high polyreactivity”.

As for “QVQLVESGGGLVQAGGSLRLSCAASGSTFHRYTMGWYRQAPGKERELLAAISWSGGSTYYADSVKGRFTISRDNAKNTVYLQMNSLKPEDTAVYYSNKVTVYRFRGDSWGQGTQVTVSS”, the “polyreactivity (PSR sort gate)” value was “high polyreactivity”.

Turning to “QVQLVESGGGLVQAGGSRRLSCAASGSIFTSNAMGWYRQAPGNERDLVAVITGSTGRTHYADSVKGRFTISRDNAMNTVYLQMNSLKPEDTAVYYFSAGLTFVTNFDYWGQGTHVTVSS”, the “polyreactivity (PSR sort gate)” value is “low polyreactivity”.

On to “QVQLVESGGGLFLAGGSLRLSCAASGSTFWYNMGWYRQAPGKDRELVAAISNSSGRTYYADSVKGRCTISRDNPKNTDYLQMKSLKPEDTAVYYSAADPKLGSRTGFYYWGQGTQVTVSS”, for which the “polyreactivity (PSR sort gate)” value was “high polyreactivity”.

For “QVQLVESGGGLVQAGGSLRLSCAASGYIFDVNAMGWSRPAPGKESELVASISRSGASTYYADSVKGRFTISRDNAKNTVYLQMNSLQPEDTAVYYCNAVSRYCEYDSWGQGTQVTVSS”, the “polyreactivity (PSR sort gate)” value is listed as “high polyreactivity”.

On to “QVQLVESGGGLVQAGGSLRLSCAASGRIFRTYTMGWYRQAPGKERELVAAITSGSSTYYADSVKGRFTISRDNAKNTVYLQMHSLKPEDTAVYYCATEWSIGRHLYTYNYWGPGTQVTVSS”, for which the “polyreactivity (PSR sort gate)” value was “high polyreactivity”.

On to “QVQLVESGGGLVQAGGSLRLSCAASGLIFVFYAMGWYRQAPGKERELVAAISRSGTSTYADSVKGRFTISRDNAKNTVYLQMNSLKPEDTAVYYCNAYRYYSPYGYWGQGTQVTVSS”, for which the “polyreactivity (PSR sort gate)” value is listed as “low polyreactivity”.

The values above are taken from the nanobody polyreactivity screen of Harvey et al. (2022).
